Test results as given in PMC3406085.

Biological target: Merkel cell polyomavirus (MCPyV) major capsid protein VP1, amino acids 38-320, unassembled pentamer (Merkel cell polyomavirus (w162))
Test: crystal structure; unassembled VP1 pentamers, native and soaked with DSL, 3SLN or GD1a; hanging drop at 20°C, 100 mM sodium cacodylate pH 6.5, 6% PEG 3,350, 300 mM magnesium chloride; four VP1 pentamers in the asymmetric unit

Substance: Merkel cell polyomavirus (MCPyV) major capsid protein VP1, amino acids 38-320, unassembled pentamer (domain or fragment)
- stoichiometry N: 5
